Test system: MS2 coat protein
Experiment: apparent KD of MS2 coat protein; designed switch direction (-1 OFF switch, 1 ON switch): 1; higher = weaker reporter binding
Method in brief: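 Normalised cluster fluorescence was curve-fitted, and each design's median over clusters is its apparent KD. Before this, SNAP-549-labelled MS2 coat protein was titrated from 0.7 or 1.5 nM, doubling to 3 µM, over RNA switches transcribed on Illumina chips by stalled E. coli RNA polymerase. Titrations had no input, 200 uM small-molecule ligand, or an oligonucleotide input, and steps lasted 0.8–1.5 h (lowest) to 10–20 min (highest).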

[1] = Eterna round: R95, input ligand: FMN 200 uM
[2] = Eterna round: R95, input ligand: microRNA oligo, concentration not stated
[3] = Eterna round: R95, input ligand: none
[4] = input ligand: microRNA oligo, concentration not stated

Sequence: GUAUCUACAGGUUUCUUUGCUCGUCUGAUACAUGAGGAUCACCCAUGUUAUAGCCCUGUGCUUGCGCAGGGCUGAGG [Sensor for hsa-mir-208a ( MOD of Tearor v.3 )] (puzzle: Sensor for hsa-mir-208a)
- apparent KD of MS2 coat protein [1]: 34.1 nM
- apparent KD of MS2 coat protein [2]: 36.6 nM
- apparent KD of MS2 coat protein [3]: 37 nM

Sequence: AUUAUACAUGAGGAUCACCCAUGUCAAUGUAGUCGAGGAUAUGGGUUGCUAUGAGGCGUACUAGAAGGCGAGGAGA [Mat - Same State 1 - Mod of JL - D17] (puzzle: Same State 1)
- apparent KD of MS2 coat protein [1]: 61.5 nM
- apparent KD of MS2 coat protein [2]: 99.9 nM
- apparent KD of MS2 coat protein [3]: 82.8 nM

Sequence: GGAAUAUUUACAGGAUAUGAGUUGUAAAGUCGAUCAGAAGGGUAGAUGUCUUACACGGUUUGUUACAUGAGGAUCACCCAUGUU [SameState NG1 #18] (Eterna round: R96, puzzle: Same State NG 1)
- apparent KD of MS2 coat protein (input ligand: FMN 200 uM): 66.9 nM
- apparent KD of MS2 coat protein [4]: 75.6 nM
- apparent KD of MS2 coat protein (input ligand: none): 86.6 nM

Sequence: GGCGCGGUCUCGCAGGAUAUCCACAAUCCUACAUGAGGAUCACCCAUGUCGCUGCAGGAUAUUAGGGAGAAGGGUGAUGCCGCGG [Bereri] (puzzle: Same State 2)
- apparent KD of MS2 coat protein [1]: 20 nM
- apparent KD of MS2 coat protein [2]: 30.4 nM
- apparent KD of MS2 coat protein [3]: 41.6 nM

Sequence: UCUUGGUUUUUGCUCGUUUUUUGUGUUGAACAUGAGGAUCACCCAUGUAUUGUACGGUCCAAUUUAAUAAUAAUCCA [JMF 74] (puzzle: Sensor for hsa-mir-208a)
- apparent KD of MS2 coat protein [1]: 59 nM
- apparent KD of MS2 coat protein [2]: 57.1 nM
- apparent KD of MS2 coat protein [3]: 82.1 nM

Sequence: GGAGCCGGCCUAGGAUAUUUCAUAAAAUAACAUGAGGAUCACCCAUGUAGGCCAGAAGGCCUUGGGAAGAAGGAGGUCGGCUCC [Loop Effect - U28] (Eterna round: R96, puzzle: Same State NG 2)
- apparent KD of MS2 coat protein (input ligand: FMN 200 uM): 13.4 nM
- apparent KD of MS2 coat protein [4]: 23.1 nM
- apparent KD of MS2 coat protein (input ligand: none): 44.4 nM

Sequence: AUUCGUUUGAUAGGAUAUCGCUAUACAUGAGGAUCACCCAUGUUUACCACGCUGGUUUUUCGUACCGAGAAGGAUUCUGAUGAU [JL JR sub007 mod 3] (Eterna round: R96, puzzle: Same State NG 2)
- apparent KD of MS2 coat protein (input ligand: FMN 200 uM): 35.4 nM
- apparent KD of MS2 coat protein [4]: 27.3 nM
- apparent KD of MS2 coat protein (input ligand: none): 41.4 nM

Sequence: UACUAUCUAUCUCAGGAUAUCAUGUCAAAGACAUGAGGAUCACCCAUGUACCAGGAAACUGGUUAUGAGAAGGGAGAUAGAUAGA [Mat - Same State 2 - Mod - D39] (puzzle: Same State 2)
- apparent KD of MS2 coat protein [1]: 98.2 nM
- apparent KD of MS2 coat protein [2]: 45.1 nM
- apparent KD of MS2 coat protein [3]: 234 nM

Sequence: UAGUGCGUUAGAGGAUAUUCAAGGUGAAAAAAAAAUACAUGAGGAUCACCCAUGUAAAAACAUGAGGAGAAGGCUGAUGUGCUA [Omei SS(NG)2 A] (Eterna round: R96, puzzle: Same State NG 2)
- apparent KD of MS2 coat protein [4]: 38 nM

Sequence: AACCUAGGCAGAGGAUAUCUGGACGCGCGCACCAGAGAAGGCUGCGAGCCCUGAAUAUACAUGAGGAUCACCCAUGUCCCGCAC [Eternabot solution 15] (Eterna round: R96, puzzle: Same State NG 1)
- apparent KD of MS2 coat protein (input ligand: FMN 200 uM): 31.2 nM
- apparent KD of MS2 coat protein [4]: 27.8 nM
- apparent KD of MS2 coat protein (input ligand: none): 26.5 nM

Sequence: UUAAUGAUGAUAGGAUAUACAUGAGGAAUUCUCGUAGAAGGAUCAUGACAUGAGGAUCACCCAUGUAACGCUCCGUAGAGCGUA [JL SSNG1 1.15] (Eterna round: R96, puzzle: Same State NG 1)
- apparent KD of MS2 coat protein (input ligand: FMN 200 uM): 572 nM
- apparent KD of MS2 coat protein [4]: 385 nM
- apparent KD of MS2 coat protein (input ligand: none): 1060 nM

Sequence: UUGUUUGGUAAAAUACAUGAGGAUCACCCAUGUUAUGGUGCAGAGGAUAUGCAUGUUUGAUUGUAGCAGAAGGCUGUUUGUUGU [JR_SSNG3_Sub035] (Eterna round: R96, puzzle: Same State NG 3)
- apparent KD of MS2 coat protein (input ligand: FMN 200 uM): 41.5 nM
- apparent KD of MS2 coat protein [4]: 29.7 nM
- apparent KD of MS2 coat protein (input ligand: none): 42.5 nM

Sequence: GUAAAACAUGAGGAUCACCCAUGUAAUAAUAUGGGAGGAUAUCAGAUUUAAUUUAAUUUAUGAGAAGGCCUAAAUG [Mat - Same State 1 - Mod of Eli - D59] (puzzle: Same State 1)
- apparent KD of MS2 coat protein [1]: 57.4 nM
- apparent KD of MS2 coat protein [2]: 181 nM
- apparent KD of MS2 coat protein [3]: 427 nM

Sequence: GGAUGACGGACAGGAUAUUGGUGCUAAUGGUGUCAAGAAGGGUCUUCGAUAUAUACGACCAGUUACAUGAGGAUCACCCAUGUU [JR_SSNG1_Sub034] (Eterna round: R96, puzzle: Same State NG 1)
- apparent KD of MS2 coat protein (input ligand: FMN 200 uM): 20.2 nM
- apparent KD of MS2 coat protein [4]: 30.5 nM
- apparent KD of MS2 coat protein (input ligand: none): 40 nM

Sequence: CGUAGGAUAUGCAGAGGAUCACCCUGUAGAAGGACGAUUACGUAGGAUAUGCAGAGGAUCACCCUGUAGAAGGACGACUAAUCU [pwkr ssNG3 DX 2xF5 +2xFMN.2] (Eterna round: R96, puzzle: Same State NG 3)
- apparent KD of MS2 coat protein (input ligand: FMN 200 uM): 174 nM
- apparent KD of MS2 coat protein [4]: 105 nM
- apparent KD of MS2 coat protein (input ligand: none): 129 nM

Sequence: AAGUGGUCCCAAGGAUAUGUCCAAAAGAAGGGCUGAGACAUGAGGAUCACCCAUGUCUCGGCGGUACAGAAGGUGGAGACAGGU [Solaena] (Eterna round: R96, puzzle: Same State NG 2)
- apparent KD of MS2 coat protein (input ligand: FMN 200 uM): 10.5 nM
- apparent KD of MS2 coat protein [4]: 10 nM
- apparent KD of MS2 coat protein (input ligand: none): 14 nM

Sequence: UUAAAACAUGAGGAUCACCCAUGUCAACAAAGUCGAGGAUAUGGGCAAAUAAAAUAAGAACCAGAAGGCGAAUAAU [salish99_SS1_r3_006] (puzzle: Same State 1)
- apparent KD of MS2 coat protein [1]: 38.2 nM
- apparent KD of MS2 coat protein [2]: 434 nM
- apparent KD of MS2 coat protein [3]: 409 nM

Sequence: AUAAAACAUGAGGAUCACCCAUGUAGACACGAUGGAGGAUAUACUAGAUCGAAAGAUCUAGUAGAAGGCCGACGUA [Mat - Same State 1 - JL mod - D95] (Eterna round: R96, puzzle: Same State 1)
- apparent KD of MS2 coat protein (input ligand: FMN 200 uM): 21.8 nM
- apparent KD of MS2 coat protein [4]: 15.6 nM
- apparent KD of MS2 coat protein (input ligand: none): 19.7 nM

Sequence: UGCUAGGAUAUCUUGAGGAUCACCCAGGAGAAGGAGCCAAGCUAGGAUAUCCUGAGGAUCACCCAGGAGAAGGAGCACAUACUC [pwkr ssNG3 DX 2xF5 +2xFMN.13] (Eterna round: R96, puzzle: Same State NG 3)
- apparent KD of MS2 coat protein (input ligand: FMN 200 uM): 107 nM
- apparent KD of MS2 coat protein [4]: 59.6 nM
- apparent KD of MS2 coat protein (input ligand: none): 102 nM

Sequence: UUGUUACAUGAGGAUCACCCAUGUUGUUGUAGAUAAGGAUAUAUAGGAACGAGAGAAAUAAUAGAAGGUAUUAGAC [JR_SS1_Sub059] (puzzle: Same State 1)
- apparent KD of MS2 coat protein [2]: 28.6 nM

Sequence: CGCCAACGCAUAGGAUAUGCUUGUGUGGAUCGGGCAGAAGGGUGGUUGGAAACAUGAGGAUCACCCAUGUAAAAGUAAGAAAAU [Rierinqu] (Eterna round: R96, puzzle: Same State NG 1)
- apparent KD of MS2 coat protein (input ligand: FMN 200 uM): 1450 nM
- apparent KD of MS2 coat protein [4]: 926 nM
- apparent KD of MS2 coat protein (input ligand: none): 668 nM

Sequence: CAGCGCUGUCGAGAGGAUAUGCGGUGAUGGACAUGAGGAUCACCCAUGUUAGCGAUAGCAUUACGGUAGAAGGCUCUGCAGCUGC [Soteed - 1] (puzzle: Same State 2)
- apparent KD of MS2 coat protein [2]: 78.9 nM

Sequence: AGAUGUUAAUUAGGAUAUGGGCACAUGAGGAUCACCCAUGUAUUUUCGAUGCUAUGUGGAGACGUCUAGAAGGGAUGGCUAACA [SameState NG2 #87] (Eterna round: R96, puzzle: Same State NG 2)
- apparent KD of MS2 coat protein (input ligand: FMN 200 uM): 198 nM
- apparent KD of MS2 coat protein [4]: 137 nM
- apparent KD of MS2 coat protein (input ligand: none): 142 nM

Sequence: GUUACAUGAGGAUCACCCAUGUAUGUGUGGGAGUAAGUGUCUUAGGAUAUCUAGUAUUUAAUGUAAGAGAAGGAAGAUUGUUGU [JMF's solution 64] (Eterna round: R96, puzzle: Same State NG 3)
- apparent KD of MS2 coat protein (input ligand: FMN 200 uM): 130 nM
- apparent KD of MS2 coat protein [4]: 106 nM
- apparent KD of MS2 coat protein (input ligand: none): 96.1 nM

Sequence: GCUACCAAUGAAGCCUACAUGAGGAUCACCCAUGUAUGUAGGCAGGAUAUCGAUUGCAAAGCGAUCGAGAAGGGCUUAGGUAGC [Mat - Same State NG 3 - JL Mod - D91] (Eterna round: R96, puzzle: Same State NG 3)
- apparent KD of MS2 coat protein (input ligand: FMN 200 uM): 35.9 nM
- apparent KD of MS2 coat protein [4]: 79.6 nM
- apparent KD of MS2 coat protein (input ligand: none): 95.8 nM

Sequence: UUGCGGGCUUGAGGAUAUUGAGUACAUAUGUUUAACAUGAGGAUCACCCAUGUGGGUUGCGGUAUCGAGAAGGUAACUUACUAC [salish99_SSNG2_r04_807] (Eterna round: R96, puzzle: Same State NG 2)
- apparent KD of MS2 coat protein (input ligand: FMN 200 uM): 110 nM
- apparent KD of MS2 coat protein [4]: 70.4 nM
- apparent KD of MS2 coat protein (input ligand: none): 97.2 nM

Sequence: GAGAGACAUGAGGAUCACCCAUGUAGGAGAAGACAAGGAUAUGUAGGAGAAGGAGAAGGAACAGAAGGUGUGGGAG [JR_SS1_Sub051] (puzzle: Same State 1)
- apparent KD of MS2 coat protein [1]: 57.9 nM
- apparent KD of MS2 coat protein [2]: 96.6 nM
- apparent KD of MS2 coat protein [3]: 109 nM

Sequence: AACUAUCUAUCUGAGGAUAUCAUGAAAUAAACAUGAGGAUCACCCAUGUGCAGGAAAACUGCAUAUGAGAAGGCAGAUAGAUUGA [salish99_ss2_r3_021] (puzzle: Same State 2)
- apparent KD of MS2 coat protein [1]: 66.6 nM
- apparent KD of MS2 coat protein [2]: 1250 nM
- apparent KD of MS2 coat protein [3]: 2000 nM

Sequence: CUAAACAGAGGAGGAUAUGCAGAGGAUCACCCUGUAGAAGGCCACAGAGGAGGAUAUGCAGAGGAUCACCCUGUAGAAGGCCAC [pwkr ssNG DX.7] (Eterna round: R96, puzzle: Same State NG 1)
- apparent KD of MS2 coat protein (input ligand: FMN 200 uM): 121 nM
- apparent KD of MS2 coat protein [4]: 210 nM
- apparent KD of MS2 coat protein (input ligand: none): 222 nM

Sequence: GCUCGGCUGAUGGCCUACAUGAGGAUCACCCAUGUGUGUGGGCAGGAUAUCUAGAUUAAGGAUGUAGAGAAGGGCCUGCCGAGC [SameState NG3 #38] (Eterna round: R96, puzzle: Same State NG 3)
- apparent KD of MS2 coat protein (input ligand: FMN 200 uM): 2620 nM
- apparent KD of MS2 coat protein [4]: 340 nM
- apparent KD of MS2 coat protein (input ligand: none): 972 nM

Sequence: UUGGUUGUCGUAGGAUAUGUAGGAUAUGCCUACAUGAGGAUCACCCAUGUUCGCAUGGCAGAAGGACAGAAGGACGAUGACCAU [pwkr ssNG2 2FMN + 1F5.19] (Eterna round: R96, puzzle: Same State NG 2)
- apparent KD of MS2 coat protein (input ligand: FMN 200 uM): 13 nM
- apparent KD of MS2 coat protein [4]: 20.5 nM
- apparent KD of MS2 coat protein (input ligand: none): 50.2 nM
